Data from patent US20150201663.

Biological target: T1, E(Edans)-AAHAAK-(Dabcyl)-NH2 (not fully specified)
T1 chain: AAHAAK

B1: aspergillopepsin II (An01g00530) (protein)
chain: EDYSSNWAGAVLIGDGYTKVTGEFTVPSVSAGSSSSSGYGGGYGYYKNKRQSEEYCASAWVGIDGDTCETAILQTGVDFCYEDGQTSYDAWYEWYPDYAYDFNDITISEGDTIKVTVEATSKSSGSATVENLTTGQSVTHTFSGNVEGDLCETNAEWIVEDFESGDSLVAFADFGSVTFTNAEATSDGSTVGPSDATVMDIEQDGTVLTETSVSGDSVTVTYV
- enzyme activity in relative fluorescent units (rfu) per minute per mg of protein; cleavage of FRET peptide at pH 4: yields by the highest rfu value for aspergillopepsin II
- mass spectrometry of the substrate's cleavage fragments (E(Edans)-AAH and AAK-(Dabcyl)NH2): aspergillopepsin II cleaves histidine at the C-terminal in the E(Edans)-AAHAAK-(Dabcyl)NH2 substrate
